# Laboratory results: article PMC5429807, “Glucose uptake in Azotobacter vinelandii occurs through a GluP transporter that is under the control of the CbrA/CbrB and Hfq-Crc systems”
# T1: Hfq-His (P. putida) (Pseudomonas putida, UniProt Q88DD3 1-86)
# T1 sequence: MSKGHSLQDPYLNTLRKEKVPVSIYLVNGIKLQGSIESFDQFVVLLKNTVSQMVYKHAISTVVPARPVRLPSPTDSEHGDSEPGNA
# T2: Crc (Azotobacter vinelandii AEIV, UniProt C1DI50 1-259)
# T2 sequence: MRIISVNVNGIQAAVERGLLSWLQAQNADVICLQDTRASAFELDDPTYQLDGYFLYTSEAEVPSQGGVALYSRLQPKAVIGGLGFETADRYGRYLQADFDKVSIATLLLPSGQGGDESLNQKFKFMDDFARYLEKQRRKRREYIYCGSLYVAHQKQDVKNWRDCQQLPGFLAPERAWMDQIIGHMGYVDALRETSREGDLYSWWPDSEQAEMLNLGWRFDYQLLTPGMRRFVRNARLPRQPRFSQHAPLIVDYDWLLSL
# How the values were obtained:
# [1] = molecular target: T3, Hfq-His;Crc (Azotobacter vinelandii …, UniProt C1DLQ2;C1DI50 1-84;1-259, |); assay: EMSA; control RNA; stable complex not observed; RNA EMSA as in a cited protocol (ref. 13), excess tRNA, non-denaturing polyacrylamide gel; buffer, salt, pH and temperature not given in the material; conditions: protein: recombinant;recombinant; tags: C-terminal His6;none (intein removed); chain copies: 6;1; single strand
# [2] = molecular target: T3, Hfq-His;Crc; assay: EMSA; about equimolar Hfq hexamer and Crc needed; RNA EMSA as in a cited protocol (ref. 13), excess tRNA, non-denaturing polyacrylamide gel; buffer, salt, pH and temperature not given in the material; conditions: protein: recombinant;recombinant; tags: C-terminal His6;none (intein removed); chain copies: 6;1; label: 5'-32P; single strand
# [3] = molecular target: T1, Hfq-His (P. putida); assay: EMSA; Hfq alone, at the tested concentrations; RNA EMSA as in a cited protocol (ref. 13), excess tRNA, non-denaturing polyacrylamide gel; buffer, salt, pH and temperature not given in the material; conditions: protein: recombinant; tags: His; chain copies: 6; label: 5'-32P; single strand
# [4] = molecular target: T2, Crc; assay: EMSA; Crc alone; RNA EMSA as in a cited protocol (ref. 13), excess tRNA, non-denaturing polyacrylamide gel; buffer, salt, pH and temperature not given in the material; conditions: protein: recombinant; tags: none (intein removed); label: 5'-32P; single strand
# T3 sequence (C1DLQ2 whole entry, one chain of several): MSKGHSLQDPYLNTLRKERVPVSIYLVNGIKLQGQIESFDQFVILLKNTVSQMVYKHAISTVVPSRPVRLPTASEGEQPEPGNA
Binder,binding result [1],binding result [2],binding result [3],binding result [4]
UUCCCCAUCUCCCCAUCCAUAGGGGC (ssRNA) [DmpR 6C control RNA],no binding,–,–,–
AAGCAACAAUCACAACAAGAGGAAAU (ssRNA) [gluP A-rich RNA oligo],–,binds,no binding,no binding
